This assay addresses IL-2 receptors (high-affinity IL-2Rαβγ or intermediate-affinity IL-2Rβγ) on PBMC lymphocytes (UniProt P01589). Kind of assay: cell-based or functional assay.

The text below walks through data of US20250092108A1.

Sequence of IL-2 receptors (high-affinity IL-2Rαβγ or intermediate-affinity IL-2Rβγ) on PBMC lymphocytes (P01589 22-272 limits assumed, chain 1 of 3): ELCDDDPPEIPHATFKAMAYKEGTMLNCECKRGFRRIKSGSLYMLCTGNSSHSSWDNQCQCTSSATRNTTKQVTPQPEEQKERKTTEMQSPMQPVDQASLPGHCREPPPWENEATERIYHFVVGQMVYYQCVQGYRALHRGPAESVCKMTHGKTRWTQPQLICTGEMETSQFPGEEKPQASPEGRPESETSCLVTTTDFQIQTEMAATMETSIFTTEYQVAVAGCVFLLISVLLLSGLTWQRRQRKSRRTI
Sequence of IL-2 receptors (high-affinity IL-2Rαβγ or intermediate-affinity IL-2Rβγ) on PBMC lymphocytes (P14784 27-551 limits assumed, chain 2 of 3, further chain): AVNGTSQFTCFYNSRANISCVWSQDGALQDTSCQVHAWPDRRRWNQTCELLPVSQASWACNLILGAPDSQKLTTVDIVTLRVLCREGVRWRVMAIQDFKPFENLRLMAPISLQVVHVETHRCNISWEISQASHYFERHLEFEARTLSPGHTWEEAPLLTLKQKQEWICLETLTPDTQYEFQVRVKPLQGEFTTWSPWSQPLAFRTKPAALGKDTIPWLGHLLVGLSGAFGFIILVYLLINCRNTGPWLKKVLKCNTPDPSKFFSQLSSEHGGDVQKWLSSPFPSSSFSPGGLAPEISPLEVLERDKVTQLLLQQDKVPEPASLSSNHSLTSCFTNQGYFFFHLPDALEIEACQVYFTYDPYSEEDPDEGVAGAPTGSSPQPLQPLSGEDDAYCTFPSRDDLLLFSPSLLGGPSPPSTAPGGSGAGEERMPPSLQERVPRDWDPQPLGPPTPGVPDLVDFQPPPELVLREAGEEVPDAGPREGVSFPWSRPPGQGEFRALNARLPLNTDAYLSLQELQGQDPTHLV
Sequence of IL-2 receptors (high-affinity IL-2Rαβγ or intermediate-affinity IL-2Rβγ) on PBMC lymphocytes (P31785 23-369 limits assumed, chain 3 of 3, further chain): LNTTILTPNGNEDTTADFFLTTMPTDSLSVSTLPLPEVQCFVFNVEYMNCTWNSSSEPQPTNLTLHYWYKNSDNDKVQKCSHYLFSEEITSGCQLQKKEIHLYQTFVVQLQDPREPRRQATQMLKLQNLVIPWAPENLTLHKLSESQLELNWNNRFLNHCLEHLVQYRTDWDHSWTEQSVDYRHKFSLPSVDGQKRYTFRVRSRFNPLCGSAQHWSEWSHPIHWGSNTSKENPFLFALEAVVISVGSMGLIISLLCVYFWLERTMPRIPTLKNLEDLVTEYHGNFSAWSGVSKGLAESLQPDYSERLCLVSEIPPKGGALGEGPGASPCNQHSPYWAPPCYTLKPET

On to “XENP27193, an Fc-IL-2(V91K/C125A) fusion as described in WO 2014/153111 (from UniProt P60568 21-153) (Fc fusion)”, for which the EC50, induction of STAT5 phosphorylation (in vitro potency) was found to be 0.01 nM.
